Experimental data from patent publication US6348311B1, “ATM kinase modulation for screening and therapies” (St. Jude Childre's Research Hospital, priority 1999, dated 2002).
One block for each compound: values may come before it. Where a SMILES comes first, the peptide text is derived from it. Where no end group is shown, it is not given here. [ ]: non-standard residue; d: D form. Nle = CCCC[C@H](N)C(=O)O

How the values were obtained:
[1] = tested on: p95 Ser343 phosphorylation; experiment: IR-induced phosphorylation of Myc-p95 on Ser343 in co-transfected 293T cells; format: cell-based; settings: co-transfected with p95 into 293T cells, 5 Gy IR
Text: FIGS. 4A and 4B. In vivo phosphorylation of p95 on ser343 by ATM upon ionizing irradiation. (A) Phosphorylation of p95 on Ser343 by IR in an ATM-dependent manner in vivo. […] The expression of Flag-ATM in each cell lysates was detected with anti-Flag antibody (top panel). Immunoprecipitated Myc-p95 was blotted with anti-a-p95-phosphoserine 343 antibody (middle panel) or anti-Myc antibody (lower panel). (B) Phosphorylation of endogenous p95 on Ser343 in normal cells, but not AT cells, after IR. Normal (WT, GM0536) or AT (GM1526) lymphoblasts were treated with either 0 (−) or 5 (+) Gy IR. Endogenous p95 was immunoprecipitated and blotted with anti-a-p95-phosphoserine 343 antibody (top panel) or anti-p95 antibody (lower panel).
In vivo phosphorylation of p95. Myc-tagged p95 (3 μg) was transiently co-transfected into 293T cells with wtATM, kdATM, or pCDNA3 (7μg) using calcium phosphate. After 2 days, cells were harvested and Myc-p95 was immunoprecipitated, subjected to SDS-PAGE (7.5%), transferred to nitrocelluose, and immunoblotted with α-cMyc antibody or the α-p95-phosphoserine 343 polyclonal mouse antibody. For metabolic labeling, the cells were washed with phosphate free RPMI plus 10% dialyzed fetal bovine serum and incubated for 30 min before irradiation. […] After electrophoresis in 7.5% SDS-PAGE, radiolabeled p95 and ATM were visualized and quantified on a PhosphorImager.

ATM kinase [2] = experiment: ATM immunoprecipitated from SY5Y neuroblastoma cells after IGF-I, in vitro kinase assay with GST-p53; format: cell-based; settings: differentiated SY5Y cells, 10nM IGF-I
Experimental: Since the growth factor and survival factor insulin-like growth factor (IGF)-I activates cellular signaling in a manner similar to insulin, the insulin observations above led us to also investigate whether IGF-I might activate ATM kinase. […] Undifferentiated and differentiated SY5Y cells were treated with IGF-I and ATM activation was assessed.
ATM was immunoprecipitated from either undifferentiated or differentiated SY5Y neuroblastoma cells after treatment with 10nM IGF-I (control cells were untreated). The immunoprecipitated ATM was then used in an in vitro kinase assay with the GST-p53 protein as the substrate. Equivalent amounts of ATM and GST-p53 were used.

p53 phosphoserine 15 = experiment: p53 Ser15 phosphorylation in lymphoblasts (immunoprecipitation and immunoblot); format: cell-based, human; settings: ALLN 90 min
Experimental: Posttranslational modification of p53 on Ser^15 in response to ionizing radiation. Monoclonal antibodies against a chemically synthesized p53 phosphoserine-15 peptide (amino acids 9-22) were used to immunoblot synthetic peptides (1×, 50 μg) consisting of the first 24 amino acids of p53 with (1-24^S15-P) or without (1-24) phosphoserine 15. Normal WT (2184) or AT (1526) lymphoblasts were untreated or treated with 5 Gy IR (IR) or 20 mM ALLN for 90 min. p53 was immunoprecipitated, subjected to SDS-PAGE (7.5% gel), transferred to nitrocellulose, and immunoblotted with the monoclonal antibody to phosphoserine 15 p53 (upper panel). Blots were then stripped and immunoblotted with antibodies to p53 (lower panel).
Normal (2184) and AT (1526) EBV immortalized human lymphoblasts were irradiated with a ^137Cs source or treated with 20 mm ALLN (Sigma) for 90 min. Cells were then harvested, lysed, and p53 was immunoprecipitated as described (Siliciano et al., Genes Dev., 11:3471, 1997). Immunoprecipitates were resolved by non-reducing SDS-PAGE, transferred to nitrocellulose and immunoblotted with monoclonal antibody to phosphoserine 15. Blots were stripped and reprobed with p53-specific monoclonal antibodies (Ab-2 and Ab-6).

ATM kinase [3] = target: T1, ATM kinase (Homo sapiens, UniProt Q13315); experiment: In vitro kinase assay, ATM with GST-peptide / GST-fusion substrates; format: biochemical; settings: GST-peptide substrate; relative to the p53ser15 site;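 note: immunoprecipitated ATM incubated with [γ-32P]ATP at 30 °C for 20 min, substrates resolved by SDS-PAGE and radiolabel incorporation quantified by PhosphorImager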
T1 construct: The full-length cDNA encoding NH2-terminal, FLAG-tagged wild-type ATM; made in house; host or cells: 293T cells, transient transfection with pcDNA-FLAG-ATMwt, anti-FLAG M2 immunoprecipitate on beads

DNA-PK = DNA-PK (Homo sapiens, UniProt P78527); experiment: In vitro kinase assay, purified DNA-PK with GST-peptide / GST-fusion substrates; format: biochemical; settings: GST-peptide substrate; relative to the p53ser15 site
Experimental: (§1) FIGS. 1A, 1B, and 1C. Phosphorylation of GST-p53 mutant peptides (amino acids 9-21) by ATM, ATR, and DNA-PK in vitro. In vitro kinase assays with immunoprecipitated, transfected flag-tagged ATM (A) or ATR (B) or purified DNA-PK (C) were performed with GST-p53 peptides containing the amino acid substitutions indicated. The amount of 32P-labeled GST-peptides was quantitated with a PhosphorImager and was normalized for each of the kinases to the level of phosphorylation of wild-type GST-p53.
(§2) FIGS. 2A, 2B, and 2C. Phosphorylation of candidate targets of by ATM, ATR and DNA-PK in vitro. GST-peptides containing the putative target sequences were used as substrates for the kinase assay.
(§3) Plasmids and GST-fusion protein production. For GST fusion peptide expression vectors, complementary oligonucleotides encoding desired peptides (14 amino acids) were cloned into the BamHI/SmaI site of pGEX-2T (Pharmacia). The constructs were confirmed by restriction enzyme digests and DNA sequencing. To construct the larger GST-p95 (327-391) protein fragment, p95 DNA encoding amino acids 327-391 was amplified by PCR with Pfu polymerase using the following primers: 5′ sense,
In vitro kinase assays and immunoprecipitation. […] Cleared supernatants were immunoprecipitated with anti-Flag M2 antibody and protein A/G agarose, the beads were washed with TGN buffer followed by TGN buffer plus 0.5 M LiCl, and two washes with kinase buffer [20 mM HEPES (pH 7.5), 50 mM NaCl, 10 mM MgCl2, 1 mM dithiothreitol (DTT) and 10 mM MnCl2]. […] ATP and […] of GST-fusion substrate (GST-p53:1-101), in varying concentration of Mn^2+. The kinase reaction was conducted at 30° C. for 20 min and stopped by the addition of SDS-PAGE loading buffer. Proteins were separated on SDS-polyacrylamide gel electrophoresis (SDS-PAGE) and transferred to nitrocellulose. Radiolabeled proteins were visualized and quantitated on a Phosphorimager (Molecular Dynamics). Use of equivalent amounts of flag-tagged ATM or ATR in the different lanes was confirmed by immunoblotting with anti-flag antibody. In some reactions, either supercoiled DNA (pBluescript II KS, Stratagene) or linearized DNA (pBluescript II KS cut with EcoR1) was added ([…]). For endogenous ATM kinase reactions, endogenous ATM was immunoprecipitated from GM0536 lymphhoblasts with ATM monoclonal antibody (D16.11) in M buffer (PBS, 10% glycerol, 0.2% Tween 20, 0.3% NP-40, 1 mM NaF, 1 mM Na3VO4, 1 mM PMSF, 1x protease inhibitor mixture]. After washing with M buffer and kinase buffer, in vitro kinase reactions were carried out according to procedures described above. The DNA-PK in vitro kinase reaction was performed as previously described (Gottlieb and Jackson, 1993), using 20 ng each of DNA-PKcs or DNA-PK (20 ng DNA-PKcs premixed with 20 ng Ku 70/80).

ATR = target: T2, ATR (Homo sapiens, UniProt Q13535); experiment: In vitro kinase assay, ATR with GST-peptide / GST-fusion substrates; format: biochemical; settings: GST-peptide substrate; relative to the p53ser15 site
T2 construct: made in house; host or cells: 293T cells, transient transfection with pBJF-FRPwt, anti-FLAG M2 immunoprecipitate
Experimental: as §1, §2
Transfection and Kinase Activity Assays. 293T cells were transiently transfected with 10 μg of either pcDNA-FLAG-ATMwt, pcDNA-FLAG-ATMkd, pBJF-FRPwt or pBJF-FRPkd (Cliby et al., EMBO J., 17:159, 1998) using calcium phosphate and harvested two days later. Cells were lysed through sonication in TGN buffer [50 mM Tris (pH 7.5), 50 mM glycerophosphate, 150 mM NaCl, 10% glycerol, 1% Tween 20, 1 mM NaF, 1 mM NaVO4, 1 mM PMSF, […] Pepstatin A, 5 μg/ml leupeptin, 10 μg/ml Aprotinin and 1 mM DTT] as described (Brunn et al., Science, 277:99-101,1997). After centrifugation at 13,000 ×g, 2 mg of extract were incubated with mouse IgG and protein A/G sepharose beads (Calbiochem). FLAG-tagged proteins were then immunoprecipitated with anti-FLAG M2 monoclonal antibody (Eastman Kodak Company) and protein A/G sepharose beads. Immunoprecipitates were washed twice with TGN buffer, once with 100 mM Tris (pH 7.5) plus 0.5 M LiCl, and twice with kinase buffer [10 mM Hepes (pH 7.5), 50 mM glycerophosphate, 50 mM NaCl, 10 mM MgCl2, 10 mM MnCl2, 5 μM ATP, and 1 mM DTT]. Kinase reactions were initiated by resuspending washed beads in 30 μl of kinase buffer containing 10 μCi [γ-^32P]ATP and 1 μg GSTp531-101 and incubated for 30 minutes at 30° C. Proteins were electrophoretically separated by SDS-polyacrylamide gel electrophoresis, transferred to nitrocellulose, and analyzed on a PhosphorImager. FLAG-tagged proteins and GSTp531-101 were subjected to immunoblotting with either anti-FLAG M2 antibody or monoclonal antibodies directed towards the NH2-terminus of p53 (Ab-2 and Ab-6, Calbiochem) as described (Siliciano et al., Genes Dev., 11:3471, 1997).
Phosphorylation of Ser^15 of p53 by ATM and ATR/FRP1 in vitro. […] Proteins from each reaction were separated by SDS polyacrylamide gel electrophoresis (7% gel), transferred to nitrocellulose, and analyzed either on a PhosphorImager or by immunoblotting. Amounts of FLAG-tagged ATM or ATR in each kinase reaction were measured by immunoblotting with anti-FLAG M2 (top panel) and amount of [γ^32P]phosphate incorporated into ATM or ATR during the reaction (lower panel). […] An upper immunoreactive band represents phosphorylated GSTp53 fusion protein. The same exposures were used for ATM, ATR/FRP1 and corresponding substrate proteins.
as §3
In vitro kinase assays and immunoprecipitation. […] Cleared supernatants were immunoprecipitated with anti-Flag M2 antibody and protein A/G agarose, the beads were washed with TGN buffer followed by TGN buffer plus 0.5 M LiCl, and two washes with kinase buffer [20 mM HEPES (pH 7.5), 50 mM NaCl, 10 mM MgCl2, 1 mM dithiothreitol (DTT) and 10 mM MnCl2]. […] ATP and […] of GST-fusion substrate (GST-p53:1-101), in varying concentration of Mn^2+. […]

4E-BP1 bound to eIF-4E = experiment: Insulin induced release of 4E-BP1 from eIF-4E in fibroblasts (Western blot); format: cell-based, mice
Experimental: Fibroblasts from normal or AT mice were treated with (+) or without (−) insulin and total cellular and complexed eIF-4E and 4E-BP1 were examined by Western blot. Total cellular eIF-4E and 4E-BP1 were unchanged by insulin treatment. The amount of 4E-BP1 bound to eIF-4E was examined by immunoprecipitating eIF-4E with a methyl-G column and then blotting for both proteins.

ATM kinase [4] = experiment: ATM immunoprecipitated from differentiated 3T3-L1 cells with or without insulin, in vitro kinase assay with GST-4E-BP1; format: cell-based; settings: GST-4E-BP1 substrate
Text: ATM was immunoprecipitated from 3T3-L1 after differentiation and without (−) or with (+) exposure to insulin. The immunoprecipitated ATM was then used in an in vitro kinase assay with GST-4E-BP1 protein as the substrate. Equivalent amounts of ATM and GST-4E-BP1 were used.

T2 sequence (Q13535 whole entry, the tested form may be a part): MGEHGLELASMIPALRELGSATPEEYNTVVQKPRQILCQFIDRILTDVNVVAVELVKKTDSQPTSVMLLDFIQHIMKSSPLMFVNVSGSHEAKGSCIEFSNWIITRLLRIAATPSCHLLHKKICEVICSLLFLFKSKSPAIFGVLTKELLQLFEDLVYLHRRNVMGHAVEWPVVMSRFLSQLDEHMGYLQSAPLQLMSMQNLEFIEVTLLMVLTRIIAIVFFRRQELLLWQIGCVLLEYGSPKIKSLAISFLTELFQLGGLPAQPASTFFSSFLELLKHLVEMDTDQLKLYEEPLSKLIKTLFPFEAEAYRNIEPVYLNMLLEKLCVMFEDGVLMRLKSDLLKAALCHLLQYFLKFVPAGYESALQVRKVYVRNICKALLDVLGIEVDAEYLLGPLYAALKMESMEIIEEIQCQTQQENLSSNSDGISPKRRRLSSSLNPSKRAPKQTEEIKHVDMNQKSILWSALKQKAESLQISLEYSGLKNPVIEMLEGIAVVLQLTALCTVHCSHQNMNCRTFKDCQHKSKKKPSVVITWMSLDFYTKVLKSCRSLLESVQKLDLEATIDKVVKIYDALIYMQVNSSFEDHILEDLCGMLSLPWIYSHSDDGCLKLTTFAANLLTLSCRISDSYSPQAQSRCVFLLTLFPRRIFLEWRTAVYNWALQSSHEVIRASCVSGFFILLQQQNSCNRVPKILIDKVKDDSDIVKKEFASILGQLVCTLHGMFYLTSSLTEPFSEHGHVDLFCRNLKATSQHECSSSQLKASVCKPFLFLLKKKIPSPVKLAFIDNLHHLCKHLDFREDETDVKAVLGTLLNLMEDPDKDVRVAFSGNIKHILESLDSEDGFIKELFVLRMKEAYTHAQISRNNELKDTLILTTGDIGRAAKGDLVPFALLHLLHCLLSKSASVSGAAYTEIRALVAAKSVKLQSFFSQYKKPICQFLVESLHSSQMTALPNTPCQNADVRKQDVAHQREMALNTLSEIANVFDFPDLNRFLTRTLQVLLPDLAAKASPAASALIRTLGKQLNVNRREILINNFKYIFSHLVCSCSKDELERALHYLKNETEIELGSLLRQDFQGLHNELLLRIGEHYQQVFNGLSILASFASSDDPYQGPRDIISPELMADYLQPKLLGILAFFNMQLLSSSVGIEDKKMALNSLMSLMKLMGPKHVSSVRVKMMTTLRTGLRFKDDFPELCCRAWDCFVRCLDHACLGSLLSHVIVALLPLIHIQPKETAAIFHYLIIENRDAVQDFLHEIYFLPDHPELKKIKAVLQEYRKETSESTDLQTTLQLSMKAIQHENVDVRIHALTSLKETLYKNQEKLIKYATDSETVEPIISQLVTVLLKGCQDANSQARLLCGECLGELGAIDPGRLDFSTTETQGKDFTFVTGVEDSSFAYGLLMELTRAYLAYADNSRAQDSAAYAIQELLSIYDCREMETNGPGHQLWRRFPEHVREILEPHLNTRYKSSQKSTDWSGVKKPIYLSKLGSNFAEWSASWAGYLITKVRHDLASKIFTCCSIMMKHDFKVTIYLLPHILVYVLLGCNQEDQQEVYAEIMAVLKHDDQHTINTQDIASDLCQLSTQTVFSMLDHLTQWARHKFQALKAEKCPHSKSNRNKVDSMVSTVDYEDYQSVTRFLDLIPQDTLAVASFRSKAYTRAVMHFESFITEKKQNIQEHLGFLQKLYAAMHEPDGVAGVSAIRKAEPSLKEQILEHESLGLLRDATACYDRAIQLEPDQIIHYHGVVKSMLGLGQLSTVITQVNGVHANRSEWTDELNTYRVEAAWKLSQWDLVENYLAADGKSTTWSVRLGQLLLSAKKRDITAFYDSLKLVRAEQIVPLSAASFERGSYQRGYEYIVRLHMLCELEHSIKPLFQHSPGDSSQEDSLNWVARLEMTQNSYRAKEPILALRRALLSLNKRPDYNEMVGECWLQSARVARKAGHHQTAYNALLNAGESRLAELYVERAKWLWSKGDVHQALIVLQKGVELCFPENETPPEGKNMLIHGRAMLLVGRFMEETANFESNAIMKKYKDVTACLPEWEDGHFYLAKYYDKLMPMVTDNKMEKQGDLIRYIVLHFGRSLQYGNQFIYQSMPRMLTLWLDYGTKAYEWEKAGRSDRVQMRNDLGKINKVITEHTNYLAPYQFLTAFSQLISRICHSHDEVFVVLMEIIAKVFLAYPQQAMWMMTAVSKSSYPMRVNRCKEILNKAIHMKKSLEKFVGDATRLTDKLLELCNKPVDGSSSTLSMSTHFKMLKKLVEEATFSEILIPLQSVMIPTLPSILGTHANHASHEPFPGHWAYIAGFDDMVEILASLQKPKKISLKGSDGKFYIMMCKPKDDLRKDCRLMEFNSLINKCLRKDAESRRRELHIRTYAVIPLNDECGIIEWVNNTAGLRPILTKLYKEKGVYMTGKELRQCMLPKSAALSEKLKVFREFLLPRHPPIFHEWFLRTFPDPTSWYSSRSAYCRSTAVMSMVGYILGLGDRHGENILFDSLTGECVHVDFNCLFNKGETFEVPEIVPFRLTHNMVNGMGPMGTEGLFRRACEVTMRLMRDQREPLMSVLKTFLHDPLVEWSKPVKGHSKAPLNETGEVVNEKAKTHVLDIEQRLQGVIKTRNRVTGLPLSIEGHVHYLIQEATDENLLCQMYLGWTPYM

Compound: kinase-inactive form of ATM: FLAG-tagged full-length ATM mutant D2870A and N2875K, kinase-dead, dominant-negative
IR-induced phosphorylation of p95ser343 [1]: significantly inhibited

Compound: IGF-I: insulin-like growth factor (IGF)-I, growth and neuronal survival factor
ATM kinase activity after IGF-I treatment (ATM kinase [2]): significantly enhanced

Compound: CCCC[C@@H](C=O)NC(=O)[C@H](CC(C)C)NC(=O)[C@H](CC(C)C)NC(C)=O [ALLN, acetyl-Leu-Leu-norleucinal] (Ac-Leu-Leu-[Nle]-aldehyde)
effect on p53 protein (p53 phosphoserine 15; lymphoblasts): stabilization of p53 protein | Phosphoserine 15 of p53 (p53 phosphoserine 15; normal lymphoblasts): undetectable

Relative Phosphorylation (%) ATM (ATM kinase [3]): <1% | Relative Phosphorylation (%) DNA-PK (DNA-PK): <1% | Relative Phosphorylation (%) ATR (ATR): 31%
Compound: RPA34kD (SQ2): GST-peptide IVPCTISQLLSATL (SEQ ID NO:41), S52 (not fully specified (N-terminus); also: GST fusion; listed as Homo sapiens)

Compound: Insulin: insulin
release of 4E-BP1 from eIF-4E (4E-BP1 bound to eIF-4E; AT cells (A38)): much less 4E-BP1 was released | release of 4E-BP1 from eIF-4E (4E-BP1 bound to eIF-4E; normal cells (A29)): caused a release of 4E-BP1 from eIF-4E | ATM kinase activity after insulin treatment (ATM kinase [4]): significantly enhanced

Relative Phosphorylation (%) ATM (ATM kinase [3]): 14% | Relative Phosphorylation (%) DNA-PK (DNA-PK): 2% | Relative Phosphorylation (%) ATR (ATR): 58%
Compound: CHK1 (SQ1): GST-peptide NVKYSSSQPEPRTG (SEQ ID NO:16), S317 (also: GST fusion)
